From US7727960B2, “C5a receptor antagonists” (Jerini AG, priority 2003, dated 2010)
Read-outs that look alike come from different tables or passages of the source. One block for each molecule: values may come before it. Starred links: 1 amine or outer side, 2 acyl side, 3 side chain; linkers in the order of their positions; H or OH if unused. Positions of bridges follow the written chain, without caps; N, C: chain ends. Non-standard residues stand in square brackets, D forms with d. No end group written: not given here. *: point of attachment. Edn = Cys(CH2-CH2-4-pyridyl), O=C([C@H](CSCCc1ccncc1)N[*:1])[*:2]; Fck = HO-CH2-(CHOH)4-C=N-O-CH2-CO- (oxime-linked sugar acyl cap); Ebo = Cys(4-picolyl), O=C([C@H](CSCc1ccncc1)N[*:1])[*:2]; Ebu = Cys(3-picolyl), O=C([C@H](CSCc1cccnc1)N[*:1])[*:2]; Ecg = Cys(2-picolyl), O=C([C@H](CSCc1ccccn1)N[*:1])[*:2]; Phe(F5) = N[C@@H](Cc1c(F)c(F)c(F)c(F)c1F)C(=O)O; Phe(4-tBu) = CC(C)(C)c1ccc(C[C@H](N)C(=O)O)cc1; Fbo = morpholine-4-carbonyl, O=C(N1CCOCC1)*; 1Nal = N[C@@H](Cc1cccc2ccccc12)C(=O)O; 2Nal = N[C@@H](Cc1ccc2ccccc2c1)C(=O)O; d(hLeu) = CC(C)CC[C@@H](N)C(=O)O; hCit = NC(=O)NCCCC[C@H](N)C(=O)O; αMeF = C[C@](N)(Cc1ccccc1)C(=O)O; 4Pal = N[C@@H](Cc1ccncc1)C(=O)O; 2Thi = N[C@@H](Cc1cccs1)C(=O)O; Cha = N[C@@H](CC1CCCCC1)C(=O)O; dCha = N[C@H](CC1CCCCC1)C(=O)O; dChg = N[C@@H](C(=O)O)C1CCCCC1; Phg = N[C@H](C(=O)O)c1ccccc1; Nle = CCCC[C@H](N)C(=O)O; Orn = NCCC[C@H](N)C(=O)O; Aze = O=C(O)[C@@H]1CCN1; Ecf = Cys(O-3-picolyl); Fbn = not defined here

How the values were obtained:
[1] = molecular target: T1, human C5aR (CD88) (human, UniProt P21730 1-350); assay: cell-based or functional assay
T1 sequence (looked up): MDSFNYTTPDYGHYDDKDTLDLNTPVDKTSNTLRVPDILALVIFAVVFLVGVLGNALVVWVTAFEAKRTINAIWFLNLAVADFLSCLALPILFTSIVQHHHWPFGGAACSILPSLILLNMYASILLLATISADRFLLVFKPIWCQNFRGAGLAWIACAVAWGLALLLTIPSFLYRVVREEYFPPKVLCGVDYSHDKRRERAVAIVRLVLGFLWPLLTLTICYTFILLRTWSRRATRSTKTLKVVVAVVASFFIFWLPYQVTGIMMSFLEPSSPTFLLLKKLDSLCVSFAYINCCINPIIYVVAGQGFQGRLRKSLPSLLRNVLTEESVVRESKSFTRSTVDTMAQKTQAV

[2] = molecular target: T1, human C5aR (CD88); assay: cell-based or functional assay; remark: listed apart in the source

Molecule: Ac-Phe-Orn(Ac)-Aze-cha-Bta-Phe-NH2 (peptide)
IC50 activity group, enzyme release assay [1]: < 50 nM

Molecule: Ac-Phe-Cit-Pro-cha-Bta-Phe-NH2 (peptide)
IC50 activity group, enzyme release assay [1]: < 200 nM

Molecule: Ac-Phe-[Orn-Hyp(CONH-CH2CH(OH)-CH2OH)-cha-Trp-Nle] (peptide)
IC50 activity group, enzyme release assay [1]: < 200 nM

Molecule: H-Phe-[Orn-Hyp-hle-Trp-Nva] (peptide)
IC50 activity group, enzyme release assay [1]: < 200 nM

Molecule: Ac-Phe-Orn-Pro-hle-Mmy-Phe-NH2 (peptide)
IC50 activity group, enzyme release assay [1]: < 200 nM

Molecule: Ac-Pff-Orn-Pro-cha-Bta-Phe-NH2 (peptide)
IC50 activity group, enzyme release assay [1]: < 50 nM

Molecule: Ac-Phe-[Orn-Ser-hle-Trp-Nle] (peptide)
IC50 activity group, enzyme release assay [1]: < 200 nM

Molecule: FAc-Phe-Orn-Aze-cha-Bta-Phe-NH2 (peptide)
IC50 activity group, enzyme release assay [1]: < 50 nM

Molecule: Ac-Mff-Orn-Pro-hle-Mcf-Mff-NH2 (peptide)
IC50 activity group, enzyme release assay [1]: < 200 nM

Molecule: Me-O-CO-Phe-Orn-Pro-cha-Bta-Phe-NH2 (peptide)
IC50 activity group, enzyme release assay [1]: < 200 nM

Molecule: Ac-Phe-[Orn-Asn-cha-Trp-Nle] (peptide)
IC50 activity group, enzyme release assay [1]: < 200 nM

Molecule: Ac-Guf-Phe-Orn-Aze-cha-Bta-Phe-NH2 (peptide)
IC50 activity group, enzyme release assay [1]: < 200 nM

Molecule: Ac-His-Phe-Orn-Aze-cha-Bta-Phe-NH2 (peptide)
IC50 activity group, enzyme release assay [1]: < 200 nM

Molecule: Ac-Phe-Orn-Pro-hle-Bta-Pff-NH2 (peptide)
IC50 activity group, enzyme release assay [1]: < 200 nM

Molecule: Ac-Phe-Dab-Pro-cha-Bta-Phe-NH2 (peptide)
IC50 activity group, enzyme release assay [1]: < 20 nM

B1: H-Phe-[Orn-Pro-hle-Trp-Nle] (peptide)
peptide: H-F[Orn]P[d(hLeu)]W[Nle]
modifications: lactam 2-C
IC50 activity group, enzyme release assay [2]: ≤ 50 nM

B4: Ac-Phe-[Orn-Pro-cha-Trp-Phe(4-Amidin)] (peptide)
peptide: Ac-F[Orn]P[dCha]W[Phe(4-Amidin)]
modifications: lactam (positions not given here); not fully specified (bridges); printed as Ac-Phe-[Orn-Pro-cha-Trp-Phe(4-Amidin)]
IC50 activity group, enzyme release assay [2]: ≤ 2000 nM

B7: Ac-Phe-Orn-Pro-chg-Trp-Phe-OH (peptide)
peptide: Ac-F[Orn]P[dChg]WF-OH
IC50 activity group, enzyme release assay [2]: ≤ 2000 nM

B8: Ac-Phe-Orn-Pro-cha-Trp-Thi-NH2 (peptide)
peptide: Ac-F[Orn]P[dCha]W[2Thi]-NH2
IC50 activity group, enzyme release assay [2]: ≤ 200 nM

B9: Fck-[Phe-Orn-Pro-cha-Trp-Nle] (peptide)
peptide: Fck-F[Orn]P[dCha]W[Nle]
modifications: bridge (positions not given here); not fully specified; printed as Fck-[Phe-Orn-Pro-cha-Trp-Nle]; also: cyclic [1-6], linkage not given here
IC50 activity group, enzyme release assay [2]: ≤ 200 nM

B12: Fck-Phe-[Orn-Pro-cha-Trp-Nle] (peptide)
peptide: Fck-F[Orn]P[dCha]W[Nle]
modifications: lactam 2-C (inferred)
IC50 activity group, enzyme release assay [2]: ≤ 200 nM

B14: Ac-Phe-[Orn-Pro-cha-Trp-Hci] (peptide)
peptide: Ac-F[Orn]P[dCha]W[hCit]
modifications: lactam (positions not given here); not fully specified (bridges); printed as Ac-Phe-[Orn-Pro-cha-Trp-Hci]
IC50 activity group, enzyme release assay [2]: ≤ 2000 nM

B17: Ac-Phe-Orn-Pro-cha-Trp-NH-CH2-CH2-Ph (peptide)
peptide: Ac-F[Orn]P[dCha]W-{NH‑CH2‑CH2‑Ph}
IC50 activity group, enzyme release assay [2]: ≤ 2000 nM

B18: H-Phe-[Orn-Ser-cha-Trp-Phe] (peptide)
peptide: H-F[Orn]S[dCha]WF
modifications: lactam 2-C
SMILES: N[C@@H](Cc1ccccc1)C(=O)N[C@H]1CCCNC(=O)[C@H](Cc2ccccc2)NC(=O)[C@H](Cc2c[nH]c3ccccc23)NC(=O)[C@@H](CC2CCCCC2)NC(=O)[C@H](CO)NC1=O
IC50 activity group, enzyme release assay [2]: ≤ 50 nM

B20: Ac-Phe-Orn-Pro-cha-Trp-Phg-NH2 (peptide)
peptide: Ac-F[Orn]P[dCha]W[Phg]-NH2
IC50 activity group, enzyme release assay [2]: ≤ 2000 nM

B22: Ac-Phe-[Orn-Pro-cha-Trp-Edn] (peptide)
peptide: Ac-F[Orn]P[dCha]W[Edn]
modifications: lactam (positions not given here); not fully specified (bridges); printed as Ac-Phe-[Orn-Pro-cha-Trp-Edn]
IC50 activity group, enzyme release assay [2]: ≤ 2000 nM

B23: Ac-Phe-[Orn-Pro-cha-Trp-Ecf] (peptide)
peptide: Ac-F[Orn]P[dCha]W[Ecf]
modifications: lactam (positions not given here); not fully specified (bridges); printed as Ac-Phe-[Orn-Pro-cha-Trp-Ecf]
IC50 activity group, enzyme release assay [2]: ≤ 2000 nM

B25: Ph2-CH-CH2-CO-Orn-Pro-cha-Trp-Phe-NH2 (peptide)
peptide: {Ph2‑CH‑CH2‑CO}-[Orn]P[dCha]WF-NH2
IC50 activity group, enzyme release assay [2]: ≤ 2000 nM

B26: Ac-Phe-Orn-Pro-cha-Trp-Cha-NH2 (peptide)
peptide: Ac-F[Orn]P[dCha]W[Cha]-NH2
IC50 activity group, enzyme release assay [2]: ≤ 200 nM

B27: Ac-Phe-Orn-Pro-hch-Trp-Phe-OH (peptide)
peptide: Ac-F[Orn]P[dHch]WF-OH
IC50 activity group, enzyme release assay [2]: ≤ 200 nM

B29: Ac-Phe-Orn-Pro-cha-Trp-1Ni-NH2 (peptide)
peptide: Ac-F[Orn]P[dCha]W[1Nal]-NH2
IC50 activity group, enzyme release assay [2]: ≤ 50 nM

Continued, values first:

IC50 activity group, enzyme release assay [1]: < 50 nM
Molecule: Ac-Phe-Har-Pro-cha-Bta-Phe-NH2 (peptide)

IC50 activity group, enzyme release assay [1]: < 200 nM
Molecule: Ac-Dab-Phe-Orn-Aze-cha-Bta-Phe-NH2 (peptide)

IC50 activity group, enzyme release assay [1]: < 200 nM
Molecule: H-Phe-[Orn-NMS-cha-Trp-Nle] (peptide)

IC50 activity group, enzyme release assay [1]: < 200 nM
Molecule: Ac-Phe-Orn-Pro-hle-Bta-2Ni-NH2 (peptide)

IC50 activity group, enzyme release assay [1]: < 200 nM
Molecule: Ac-Pff-Orn-Pro-hle-Bta-Phe-NH2 (peptide)

EC50, agonistic activity, enzyme release assay [1]: > 100000 nM
IC50 activity group, enzyme release assay [1]: < 50 nM
Molecule: Ac-Phe-Orn-Aze-cha-Trp-Phe-NH2 (peptide)

IC50 activity group, enzyme release assay [1]: < 200 nM
Molecule: Ac-Phe-Orn-Tic-cha-Trp-Phe-NH2 (peptide)

IC50 activity group, enzyme release assay [1]: < 20 nM
Molecule: Ac-Phe-Har-Aze-cha-Bta-Phe-NH2 (peptide)

IC50 activity group, enzyme release assay [2]: ≤ 2000 nM
B2: Ac-Phe-[Orn-Pro-cha-Trp-Ecg] (peptide)
peptide: Ac-F[Orn]P[dCha]W[Ecg]
modifications: lactam (positions not given here); not fully specified (bridges); printed as Ac-Phe-[Orn-Pro-cha-Trp-Ecg]

IC50 activity group, enzyme release assay [2]: ≤ 2000 nM
B3: Ac-Phe-[Orn-Pro-cha-Trp-Eew] (peptide)
peptide: FXPXWX
modifications: not fully specified; Ac-; Orn2; cha4 (D); Eew6; cyclic [2-6]

IC50 activity group, enzyme release assay [2]: ≤ 200 nM
B5: Ac-Phe-[Orn-Pro-cha-Trp-Arg(Me2)] (peptide)
peptide: FXPXWR
modifications: not fully specified; Ac-; Orn2; cha4 (D); Arg(Me2)6; cyclic [2-6]

IC50 activity group, enzyme release assay [2]: ≤ 2000 nM
B6: Ac-Phe-[Orn-Pro-cha-Trp-Ebo] (peptide)
peptide: Ac-F[Orn]P[dCha]W[Ebo]
modifications: lactam (positions not given here); not fully specified (bridges); printed as Ac-Phe-[Orn-Pro-cha-Trp-Ebo]

IC50 activity group, enzyme release assay [2]: ≤ 200 nM
B10: H-Amf-[Orn-Aze-hle-Pff-Nle] (peptide)
peptide: H-[αMeF][Orn][Aze][d(hLeu)][Phe(F5)][Nle]
modifications: lactam 2-C
SMILES: CCCC[C@@H]1NC(=O)[C@H](Cc2c(F)c(F)c(F)c(F)c2F)NC(=O)[C@@H](CCC(C)C)NC(=O)[C@@H]2CCN2C(=O)[C@@H](NC(=O)[C@@](C)(N)Cc2ccccc2)CCCNC1=O

IC50 activity group, enzyme release assay [2]: ≤ 2000 nM
B11: Ac-Phe-[Orn-Pro-cha-Trp-Ebu] (peptide)
peptide: Ac-F[Orn]P[dCha]W[Ebu]
modifications: lactam (positions not given here); not fully specified (bridges); printed as Ac-Phe-[Orn-Pro-cha-Trp-Ebu]

IC50 activity group, enzyme release assay [2]: ≤ 50 nM
B13: Ac-Phe-Orn-Pro-cha-Trp-2Ni-NH2 (peptide)
peptide: Ac-F[Orn]P[dCha]W[2Nal]-NH2

IC50 activity group, enzyme release assay [2]: ≤ 200 nM
B15: Fbn-Phe-[Orn-Pro-cha-Trp-Nle] (peptide)
peptide: Fbn-F[Orn]P[dCha]W[Nle]
modifications: lactam 2-C; reading uncertain; also: printed as Fbn-Phe-[Orn-Pro-cha-Trp-Nle]

IC50 activity group, enzyme release assay [2]: ≤ 2000 nM
B16: Ac-Phe-Orn-Ser-cha-Trp-Phe-OH (peptide)
peptide: Ac-F[Orn]S[dCha]WF-OH
SMILES: CC(=O)N[C@@H](Cc1ccccc1)C(=O)N[C@@H](CCCN)C(=O)N[C@@H](CO)C(=O)N[C@H](CC1CCCCC1)C(=O)N[C@@H](Cc1c[nH]c2ccccc12)C(=O)N[C@@H](Cc1ccccc1)C(=O)O

IC50 activity group, enzyme release assay [2]: ≤ 2000 nM
B19: Ac-Phe-Orn-Pro-cha-Trp-Eap-NH2 (peptide)
peptide: Ac-F[Orn]P[dCha]W[Phe(4-tBu)]-NH2

IC50 activity group, enzyme release assay [2]: ≤ 200 nM
B21: H-Phe-[Orn-Pro-cha-Trp-Nle] (peptide)
peptide: H-F[Orn]P[dCha]W[Nle]
modifications: lactam 2-C

IC50 activity group, enzyme release assay [2]: ≤ 200 nM
B24: Fbo-Phe-[Orn-Pro-cha-Trp-Nle] (peptide)
peptide: Fbo-F[Orn]P[dCha]W[Nle]
modifications: lactam 2-C (inferred)

IC50 activity group, enzyme release assay [2]: ≤ 200 nM
B28: Ac-Phe-[Orn-Pro-cha-Trp-Ppa] (peptide)
peptide: Ac-F[Orn]P[dCha]W[4Pal]
modifications: lactam (positions not given here); not fully specified (bridges); printed as Ac-Phe-[Orn-Pro-cha-Trp-Ppa]
